In US20240324599A1, “PESTICIDAL ENZYMES FOR USE ON NEMATODES, INSECTS, AND MOLLUSKS” (priority 2023, published 2024):

Tests used:
Assay type in all cases: in vivo
[1] = tested on: Fall armyworm (Spodoptera frugiperda); experiment: Diet-surface overlay (DSO) bioassay; conditions: for Larva Stage I / Larva Stage II / Larva Stage III / Larva Stage IV / Dead Larva: number of individuals
Outline: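 Enzyme treatments (0.1 mL) were spread and dried on artificial diet (no antibiotics), then one first-instar larva was placed per cell, 16 or 32 larvae per treatment. Trays were held at 27° C., 16:8 h light-dark, and developmental categories were counted after 7 days. Controls were filtered water and Btk spores at 1000 ppm.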

[2] = tested on: soybean cyst nematode (SCN, Heterodera glycines); experiment: Controlled environment soybean seed treatment trial: SCN cysts on roots; conditions: for % Comparison to Control: base control = 100%
Steinernema feltiae = experiment: In-vitro plate assay: Steinernema feltiae juvenile death after direct treatment; conditions: 40 μL per well (ILEVO 20 μL)
Procedure: To determine the effects of enzymes on an additional soil-dwelling nematode species (Steinernema feltiae), a NemAttack™ package containing approximately 5 million S. feltiae juveniles was purchased from ARBICO Organics. The nematodes arrived already hatched and dispersed within a powder. To prepare the nematodes for use, an aliquot of the dry nematode mixture was rehydrated in water. The liquid nematode mixture was adjusted to a concentration of 20-30 nematode juveniles per 10 μL. The free enzymes Esterase B (SEQ ID NO: 89) and Chitinase 19F (SEQ ID NO: 182) were produced as described in Example 2.
Potato dextrose agar media containing chloramphenicol and chlortetracycline was prepared and added to sterile twenty-four-well cell culture plates (1 mL per well). The plates were divided according to the pre-determined N-value for each treatment (N=12-24). […]
To quantify the treatments' effects on nematode viability, the nematodes were examined under a dissecting microscope at 20× magnification. Initial (T0) values for the number of live juveniles, number of dead juveniles and total number of juveniles were recorded immediately after preparation of each well. […] Approximately 20-22 hours post addition of juveniles, the plates were evaluated, and the number of live juveniles, dead juveniles and total number of juveniles were recorded. […]

[3] = Table 11, free enzyme seed treatment 2 fl oz/unit, soybean P18A98X, ILEVO 0.15 mg AI/seed, 3 weeks after inoculation, base control 71.4

B1: Streptomyces coelicolor Chitinase F (Chi19F) (protein)
chain: ASCSSYHAWSADANYNTGDIVRYTDGKAYIAEHANPGYDPLISTWYWDPYACDGGSQTPVGNFVVSEAQFNQMFPGRNSFYTYSGLTAALSAYPGFANTGSDTTKKQEAAAFLANVSHETGGLVYIVEQNTANYPHYCDWNQPYGCPAGQAAYYGRGPIQLSWNFNYKAAGDALGIDLLGNPWLVQNDAAVAWKTGLWYWNTQSGPGTMTPHNAMVNGAGFGQTIRSINGSLECDGKNPAQVQSRVTKYQQFAQILGVSPGGNLYC
modifications: Chitinase F (Chi19F); Streptomyces coelicolor
Question: B1 was tested. Which “Larva Stage I” value ([1]; Table 48, chitinases, n = 32) did it give?
Answer: 4

Question: And the “Larva Stage II” value ([1]; Table 48, chitinases, n = 32)?
Answer: 14

Question: And the “Larva Stage III” value ([1]; Table 48, chitinases, n = 32)?
Answer: 5

Question: And the “Larva Stage IV” value ([1]; Table 48, chitinases, n = 32)?
Answer: 6

Question: And the “Dead Larva” value ([1]; Table 48, chitinases, n = 32, dose per treatment in mU/mL Diet)?
Answer: 3

Question: And the “% Comparison to Control” value ([2]; Table 11)?
Answer: 68%

Question: And the “Average cysts per g of root tissue” value [2, 3]?
Answer: 48.8 cysts per g of root tissue

Question: What about the “% Comparison to Control” value ([2]; Table 12) of the same molecule?
Answer: 79%

Question: And the “Average cysts per g of root tissue” value ([2]; Table 12, seed treatment 2 fl oz/unit, ILEVO 0.15 mg AI/seed, base control 376.9)?
Answer: 296.9 cysts per g of root tissue

Question: And the “Difference in Percent Death of Nematodes for 0 to 22 Hours” value (Steinernema feltiae; Table 24, water control 7%)?
Answer: 17%

B2: Bacillus subtilis Esterase (EstB without signal sequence) (protein, listed as Bacillus subtilis)
chain: ESVHNPVVLVHGISGASYNFFAIKNYLISQGWQSNKLYAIDFYDKTGNNLNNGPQLASYVDRVLKETGAKKVDIVAHSMGGANTLYYIKYLGGGNKIQNVVTLGGANGLVSSTALPGTDPNQKILYTSIYSLNDQIVINSLSRLQGARNIQLYGIGHIGLLSNSQVNGYIKEGLNGGGLNTN
modifications: Esterase (EstB H191 without signal sequence)
Question: What does the source list for B2?
Answer: Larva Stage I ([1]; Table 50, esterases, n=32): 3; Larva Stage II ([1]; Table 50, esterases, n=32): 4; Larva Stage III ([1]; Table 50, esterases, n=32): 14; Larva Stage IV ([1]; Table 50, esterases, n=32): 10; Dead Larva ([1]; Table 50, esterases, n=32, dose per treatment in U/mL Diet): 1; individuals with delayed development ([1]; text to Table 50): 67%; % Comparison to Control ([2]; Table 11): 27%; Average cysts per g of root tissue [2, 3]: 19.6 cysts per g of root tissue; Average cysts per g of root tissue ([2]; Table 15, seed treated with whole cell broth, base control 59.8): 56.3 cysts per g of root tissue; % Comparison to Control ([2]; Table 15, whole cell broth): 94%; % Comparison to Control ([2]; Table 25): 80%; Average cysts per g of root tissue ([2]; Table 25, soybean 3230E3, dried (PVP) formulation 0.04 units/seed, liquid 2 fl oz/unit, base control 289.9): 233.2 cysts per g of root tissue; Difference in Percent Death of Nematodes for 0 to 20 Hours (Steinernema feltiae; Table 23, water control 3%): 33%
